Legend:
[1] = target: T1, 6xHis-tagged huPD-L1 (human, UniProt Q9NZQ7 19-238); assay: ELISA, plate-coated 6xHis huPD-L1, A450
T1 construct: also called human PD-L1 (RD Systems 9049-B7); extracellular domain of human PD-L1 fused to a His tag; not shown: 6xHis tag
Procedure: (§1) Hybridoma supernatants were tested for binding to huPD-L1, cyPD-L1, and muPD-L1 by ELISA. Briefly, 30 μL 6xHis-tagged huPD-L1, cyPD-L1, or muPD-L1 (1 μg/mL in PBS) were immobilized in wells of a 96-well assay plate overnight at 4° C. After washing and blocking steps, 30 μL of antibody supernatant were added to the plate and incubated at room temperature for 1 hr. Bound human antibody was detected using horseradish peroxidase (HRP)-conjugated goat anti-human Fc (Invitrogen Cat. No. 109-035-097; diluted 1:5000) or goat anti-mouse Fc HRP (Invitrogen Cat. No. 115-035-071) as a control. Bound antibody was detected with 1-Step Ultra™ TMB-ELISA Substrate (ThermoFisher Scientific Cat. No. 34029). When the reaction was complete the reaction was stopped, and the plate was read at 450 nm.
(§2) Anti-PD-L1 antibodies, described in Example 1A and manufactured substantially as described in Example 1B, were tested for to huPD-L1 and cyPD-L1 by ELISA substantially as described in Example 1A, using 12 dilutions of antibody ranging from 1 ng/ml to 3 mg/mL.

[2] = target: T2, 6xHis-tagged cyPD-L1 (cynomolgus monkey, UniProt Q9NZQ7 19-238 (human entry)); assay: ELISA, plate-coated 6xHis cyPD-L1, A450
T2 construct: The assay text says only '6xHis-tagged cyPD-L1'; also called cynomolgus PD-L1; not shown: 6xHis tag
T2 sequence (Q9NZQ7 other isoform, or with tags, fused parts or gaps): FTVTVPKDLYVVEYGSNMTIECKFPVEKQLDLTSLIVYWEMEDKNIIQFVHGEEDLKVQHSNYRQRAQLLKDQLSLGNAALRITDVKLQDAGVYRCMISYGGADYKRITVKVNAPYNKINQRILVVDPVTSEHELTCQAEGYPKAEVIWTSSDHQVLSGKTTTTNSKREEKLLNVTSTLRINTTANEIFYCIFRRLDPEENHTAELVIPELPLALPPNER
Procedure: as §1, §2

[3] = target: T3, human PD-L1 expressed on cells (human, UniProt Q9NZQ7 19-290); assay: cell-based or functional assay
T3 sequence (Q9NZQ7 19-290): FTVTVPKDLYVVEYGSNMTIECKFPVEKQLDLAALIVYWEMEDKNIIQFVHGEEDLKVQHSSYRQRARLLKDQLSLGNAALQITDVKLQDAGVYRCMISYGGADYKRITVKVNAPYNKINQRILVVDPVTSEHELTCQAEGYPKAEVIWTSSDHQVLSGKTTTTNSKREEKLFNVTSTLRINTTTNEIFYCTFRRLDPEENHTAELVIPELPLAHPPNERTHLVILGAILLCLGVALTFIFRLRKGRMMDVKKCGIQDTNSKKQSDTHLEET

[4] = target: T3, human PD-L1 expressed on cells; assay: cell-based or functional assay; remark: listed apart in the source
[5] = target: T1, 6xHis-tagged huPD-L1; assay: ELISA, plate-coated 6xHis huPD-L1, OD 450 nm
Procedure: as §1

[6] = target: T2, 6xHis-tagged cyPD-L1; assay: ELISA, plate-coated 6xHis cyPD-L1, OD 450 nm
Procedure: as §1

[7] = target: T3, human PD-L1 expressed on cells; assay: flow cytometry, PD-L1-expressing CHO cells, MFI (FITC)
Procedure: Wild-type (wt) Chinese hamster ovary (CHO) cells (ATCC) and CHO cells engineered to express huPD-L1 (BPS Bioscience) were seeded at 200,000 cells in 50 μL FACS buffer (PBS containing 1% FBS and 5 mM EDTA) per well of a 96-well plate. Cell viability was assessed by adding 50 μL 2×Zombie Violet (BioLegend). Dead cell controls were also prepared and 2×Zombie violet was added. After incubating 20-30 minutes at room temperature, protected from light, 150 μL FACS buffer were added to each well. The plates were centrifuged, and the supernatant was aspirated. […] The plates were incubated 30 minutes on ice, protected from light. 150 μL FACS buffer were then added to each well and the plate was centrifuged. The supernatant was removed and the cells were washed three times in 200 μL FACS buffer. […] The cells were incubated 30 minutes on ice, protected from light. 150 μL FACS buffer were then added to each well and the plate was centrifuged. Supernatant was removed and the cells were washed twice with 200 μL FACS buffer. The cells were then resuspended in FACS buffer and analyzed by CytoFLEX using the appropriate channels. After gating for whole, single, live cells, the MFI in the APC channel (or FITC channel for human control samples) was normalized to the signal from hybridoma media alone (or isotype control for human control). MFI fold over media alone was determined for each clone supernatant tested.

[8] = target: T4, PD-L1-His (Acro Cat PDL-H5229) (human, UniProt Q9NZQ7 19-238); assay: SPR (Biacore 4000) as in Example 3, conjugate captured, PD-L1-His analyte, 25° C.
T4 construct: also called human PD-L1 (SPR analyte); not shown: His tag
T4 sequence (Q9NZQ7 19-238 limits assumed): as the sequence (Q9NZQ7 other isoform, or with tags, fused parts or gaps) above, with T33A, S34A, N62S, Q68R, R82Q, L173F, A185T, I192T, L215H counted along it
Procedure: (§3) The binding affinities of the generated antibodies to human PD-L1 were determined by surface plasmon resonance. […] PD-L1-His (Acro Cat PDL-H5229) was tested for binding in a 3-fold titration series up to 100 nM. Data were collected in HBS-P (pH 7.4) at 37° C. and 25° C.
(§4) The binding affinities of the generated anti-PD-L1 conjugates were determined by surface plasmon resonance, as described in Example 3.

[9] = target: T4, PD-L1-His (Acro Cat PDL-H5229); assay: SPR (Biacore 4000) as in Example 3, conjugate captured, PD-L1-His analyte, 37° C.
Procedure: as §3, §4

T1 sequence (Q9NZQ7 19-238): as the sequence (Q9NZQ7 other isoform, or with tags, fused parts or gaps) above, with T33A, S34A, N62S, Q68R, R82Q, L173F, A185T, I192T, L215H counted along it

| Absolute IC50 [1] [µg/mL] | Absolute IC50 [2] [µg/mL] | EC50 [7] [µg/mL] | Binder | also measured |
| --- | --- | --- | --- | --- |
| 0.0498 | 0.0569 | – | 3B1 (antibody, V domains shown) VH: QIQLVQSGPELKKPGETVKISCKASGYDFTNYGMNWVKQAPGKGLKWMGYINTYTGEPAYADDFKGRFAFSLETSARTAYLRINNLKNEDTATYFCATRAYYGHYLAYWGQGTLVTVSA VL: DVLMTQTPLSLPVSLGDQASISCRSSQRIVHSNGNTYLEWYLQKPGQSPKLLIYKVSNRFSGVPDRFSGSGSGTDFTLKISRVEAEDLGVYYCFQGSHVPYTFGGGTKLEIK | – |
| – | 0.325 | – | 3B5 (antibody, V domains shown) VH: QIQLVQSGPELKKPGETVKISCKASGYDFTNYGMNWVKQAPGKGLKWMGYINTYTGEPAYADDFKGRFAFSLETSARTAYLRINNLKNEDTATYFCATRAYYGHYLAYWGQGTLVTVSA VL: QIVLTQSPAIMSASPGEKVTITCSASSSVSYMHWFQQKPGTSPKLWIYSTSNLASGVPARFSGSGSGTSYSLTISRMEAEDAATYYCQQRSSYPFTFGSGTKLEIK | binding result [1]: binds |
| – | – | 0.133 | 1P4-IR700 (antibody, V domains shown, IRDye 700DX (IR700) attached via NHS ester; sites not stated; IRDye 700DX (IR700) attached via NHS ester; sites not stated; DAR 2.9 per antibody, also called 1P4-IR700 conjugate; anti-PD-L1-IR700 conjugate) VH: QVQLVESGGGVVQPGRSLRLSCAASGFTFSNYGMHWVRQAPGKGLEWVSLILYDGSNKYYADSVKGRFTISRDNSKNTLYLQMNSLRAEDTAVYYCARDRVWLDVWGKGTTVTVSS VL: not shown | EC50 of photoimmunotherapy-induced killing of A431 cells (Cell Tox Green, 128 J/cm^2) [3]: 0.103 µg/mL; EC50 of luminescence (RLU), PD-1:PD-L1 Blockade Bioassay (PD-L1 aAPC/CHO-K1 cells with PD-1 Effector Jurkat NFAT-luciferase cells) [4]: 0.855 µg/mL; EC50 [5]: 0.189 µg/mL; EC50 [6]: 0.193 µg/mL; Kd [8]: 16 nM; koff [8]: 0.0056 s⁻¹; kon [8]: 350000 M⁻¹ s⁻¹; Kd [9]: 23 nM; koff [9]: 0.011 s⁻¹; kon [9]: 470000 M⁻¹ s⁻¹ |
| 0.33 | 0.246 | – | 3B6 (antibody, V domains shown) VH: EVKLVESGGGLVQPGGSLRLSCGTSGFTFSDFYVEWVRQPPGKRLEWIAASRNKVNDYTTEYSESVKGRFIVSRDTSQNILYLQMNALRAEDSAIYYCARNVPWDGWYFDVWGAGTAVTVSS VL: DIVMTQSQKFMSTSVGDRVSITCKASQNVRTAVAWFQQKPGQSPKALIYLASTRHTGVPDRFTGSGSGTDFTLTISNVQSEDLADYFCLQHWNYPRTFGGGTKLEIK | – |
| – | – | 0.0186 | 1P9 with effector knockout mutations L234F/L235E/P331S (antibody, V domains shown, Same variable regions as 1P9; also called 1P9-EKO; 1P9 (L234F/L235E/P331S)) VH: EVQLVESGGGLVQPGGSLRLSCAASGFTFSTYWMSWVRQAPGKGLEWVANIKQDGGERYYVDSVKGRFTISRDNAKSSLYLQMNSLRAEDTALYYCARLRLYSDYEDYWGQGTLVTVSS VL: DIQMTQSPSSVSASVGDRVTITCRASQGISSWLAWYQQKPGKAPKLLIYSVSSLQSGVPSRFSGSGSGTDFTLTISSLQPEDSATYYCQQANSLPPTFGGGTKVEIK | – |
| – | – | 0.0174 | 1P9-EKO-IR700 conjugate (antibody, V domains shown, IRDye 700DX (IR700) attached via NHS ester; sites not stated; IRDye 700DX (IR700) attached via NHS ester; sites not stated; DAR 2.5 per antibody, also called 1P9-EKO (conjugate); anti-PD-L1-IR700 conjugate with effector knock-out Fc region) VH: EVQLVESGGGLVQPGGSLRLSCAASGFTFSTYWMSWVRQAPGKGLEWVANIKQDGGERYYVDSVKGRFTISRDNAKSSLYLQMNSLRAEDTALYYCARLRLYSDYEDYWGQGTLVTVSS VL: DIQMTQSPSSVSASVGDRVTITCRASQGISSWLAWYQQKPGKAPKLLIYSVSSLQSGVPSRFSGSGSGTDFTLTISSLQPEDSATYYCQQANSLPPTFGGGTKVEIK | – |

The next lines start with the binder.

| Binder | Absolute IC50 [1] [µg/mL] | Absolute IC50 [2] [µg/mL] | EC50 [7] [µg/mL] | also measured |
| --- | --- | --- | --- | --- |
| 2M2 (antibody, V domains shown) VH: QVQLVQSGAEVKKPGASVKVSCKASGYTFTNYGISWVRQAPGQGLEWMGWISAYNGHTNYAQKVQGRVTMTTDTSTSTAFMELRSLRSDDSAVYYCARGTSGDYWGQGTLVTVSS VL: not shown | 0.0838 | 0.167 | – | – |
| 2M5 (antibody, V domains shown) VH: EVQLVESGGGLVKPGGSLRVSCAASGFTLSSYSMNWVRQAPGKGLEWVSSISSSSSYIYYADSVKGRFTISRDNAKNLLYLQMNSLRAEDTAVYYCAREGGAARPSWFDPWGQGTLVTVSS VL: QAVVTQESALTTSPGETVTLTCRSSTGAVTTSNYANWVQEKPDHLFTGLIGGTNNRAPGVPARFSGSLIGDKAALTITGAQTEDEAIYFCALWYRNHWVFGGGTKLTVL | 0.788 | 0.234 | – | – |
| 1P4 with effector knockout (EKO) mutations L234F/L235E/P331S (antibody, V domains shown, Same variable regions as 1P4; also called 1P4-EKO; 1P4 (L234F/L235E/P331S)) VH: QVQLVESGGGVVQPGRSLRLSCAASGFTFSNYGMHWVRQAPGKGLEWVSLILYDGSNKYYADSVKGRFTISRDNSKNTLYLQMNSLRAEDTAVYYCARDRVWLDVWGKGTTVTVSS VL: not shown | – | – | 0.0455 | – |
| 1P4-EKO-IR700 conjugate (antibody, V domains shown, IRDye 700DX (IR700) attached via NHS ester; sites not stated; IRDye 700DX (IR700) attached via NHS ester; sites not stated; DAR 2.7 per antibody, also called 1P4-EKO (conjugate); anti-PD-L1-IR700 conjugate with effector knock-out Fc region) VH: QVQLVESGGGVVQPGRSLRLSCAASGFTFSNYGMHWVRQAPGKGLEWVSLILYDGSNKYYADSVKGRFTISRDNSKNTLYLQMNSLRAEDTAVYYCARDRVWLDVWGKGTTVTVSS VL: not shown | – | – | 0.145 | – |
| 3B2 (antibody, V domains shown) VH: EVQLQESGPSLVKPSQTLSLTCSVTGDSITSGYWNWIRKFPGNKLEYMGYISYTGSTYYNPSLKSRISITRDTSKNQYYLQLDSVTTEDTATYYCARKGGWLLPFAYWGQGTLVTVSA VL: not shown | 0.225 | 0.341 | – | – |
| 3B4 (antibody, V domains shown) VH: EVQLQESGPSLVKPSQTLSLTCSVTGDSITSGYWNWIRKFPGNKLESMGYISYTGSTYYNPSLKSRLSITRDTSKNQFYLQLNSVTTEDTATYYCASGLLWLAWFAYWGQGTLVTVSA VL: DIVMSQSPSSLAVSVGEKVTMSCKSSQSLLYSSNQKNSLAWYQQKPGQSPKLLIYWASTRESGVPDRFTGSGSGTDFTLTISSVRAEDLAVYYCQQYYGYPFTFGGGTKLEIK | 0.152 | 0.106 | – | – |
| 2M1 (antibody, V domains shown) VH: EVQLVESGGGLVKPGGSLRLSCAASGFTFSSYTMNWVRQAPGKGLEWVSSITSSTSYIYYADSVKGRFTISRDNAKNSLYLQMNSLRAEDTSVYYCVRDWSIAARGAWFDPWGQGTLVTVSS VL: DIQMTQSPSSVSASVGDRVTITCRASQGIGSWLAWYQQKPGKAPKFLIYAASSLQGGVPSRFSGSGSGTDFTLTISSLQPEDFATYYCQQANSFPLTFGGGTKVEIK | 0.428 | 0.559 | – | – |
| 2M3 (antibody, V domains shown) VH: EVQLVESGGGFVQTGGSLRLSCAASGFNFRSYDMHWVRQVIGKGLEWVSGIGPGGDTYYPGSVKGRFTISRENAKNSLYLQMNSLRAGDTAVYYCAREQFEGHYFDYWGQGTLVTVSS VL: DIQMTQSPSSVSASVGDRVNITCRASQGISSWLAWYQQKPWKAPKLLIYTASSLQSGVPSRFSGSGSGTDFTLTISSLQPEDFATYYCQQANSFPITFGQGTRLEIK | 0.788 | 0.672 | – | – |

Reference: patent US20250145716A1 (RAKUTEN MEDICAL, published 2025)
